Data from patent EP2548892A1 (CSL Behring GmbH, dated 2013).

How the values were obtained:
[1] = molecular target: Human FXIIa (activated Factor XII) (human) (UniProt P00748); experiment: cell-based or functional assay
[2] = molecular target: T1, Human FXII (unactivated Factor XII) (human, UniProt P00748 20-615); experiment: Biacore, purified IgG captured on anti-human IgG, FXII injected at 0-500 nM, 1:1 model, 25°C
T1 construct: Bought from Enzyme Research Laboratories; also called Hageman factor
T1 sequence: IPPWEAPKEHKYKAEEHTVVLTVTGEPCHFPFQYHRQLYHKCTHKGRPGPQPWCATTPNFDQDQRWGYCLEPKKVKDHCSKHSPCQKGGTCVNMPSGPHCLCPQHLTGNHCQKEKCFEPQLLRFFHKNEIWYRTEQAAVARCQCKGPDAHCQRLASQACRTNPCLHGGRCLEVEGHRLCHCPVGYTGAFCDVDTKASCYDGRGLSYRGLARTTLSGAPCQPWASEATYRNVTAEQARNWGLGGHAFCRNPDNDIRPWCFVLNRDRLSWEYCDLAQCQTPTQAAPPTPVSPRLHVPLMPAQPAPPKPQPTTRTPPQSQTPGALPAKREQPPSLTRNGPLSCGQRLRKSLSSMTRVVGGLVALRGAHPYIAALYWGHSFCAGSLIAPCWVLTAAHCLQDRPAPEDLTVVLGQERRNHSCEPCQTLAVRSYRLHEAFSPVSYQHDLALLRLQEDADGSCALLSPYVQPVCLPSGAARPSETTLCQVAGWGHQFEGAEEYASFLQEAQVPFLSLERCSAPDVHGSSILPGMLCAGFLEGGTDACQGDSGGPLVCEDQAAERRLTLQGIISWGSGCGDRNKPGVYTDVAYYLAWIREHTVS

Human FXIIa beta (human) [3] = molecular target: Human FXIIa beta (human) (UniProt P00748); experiment: Biacore, purified IgG4 captured on anti-human IgG, FXIIa beta injected, 1:1 model
Human FXIIa beta (human) [4] = molecular target: Human FXIIa beta (human) (UniProt P00748); experiment: Biacore, KD against parental 3F7 (the reference itself)
Human FXIIa beta (human) [5] = molecular target: Human FXIIa beta (human) (UniProt P00748); experiment: Biacore, purified IgG captured on anti-human IgG, FXIIa beta injected at 0-40 nM, 1:1 model, 25°C

B1: 3F7 monoclonal antibody (fully human IgG4/lambda) (antibody, V domains shown)
VH: EVQLLESGGGLVQPGGSLRLSCAASGFTFSKYIMQWVRQAPGKGLEWVSGIRPSGGTTVYADSVKGRFTISRDNSKNTLYLQMNSLRAEDTAVYYCARALPRSGYLISPHYYYYALDVWGQGTTVTVSS
VL: QSELTQPPSASGTPGQRVTISCSGSSSNIGRNYVYWYQQVPGTAPKLLIYSNNQRPSGVPDRFSGSKSGTSASLVISGLRSEDEADYYCAAWDASLRGVFGGGTKLTVLG
notes: also called 3F7 mAb; MAb 3F7
[1]
  potency in FXIIa amidolytic activity assay, against OT2: 2 fold
[2]
  Kd: 121 nM
Human FXIIa beta (human) [3]
  Kd: 8.6 nM
  koff: 0.0011 s⁻¹
  kon: 120000 M⁻¹ s⁻¹
Human FXIIa beta (human) [4]
  Fold affinity improvement: 1 fold
Human FXIIa beta (human) [5]
  Kd: 6.2 nM
